Data: PMC10449631 (Nature Chemical Biology, 2023)
“And” between values parts separate entries of the source, which are not always exact repeats. Equal values may be shown once. Positions of bridges follow the written chain, without caps; N, C: chain ends. Residues, ends and D or L forms follow the SMILES beside them. No end group written: not given here.

Tests used:
PaAP [1] = tested on: PaAP; parameters: method as in PMID 30894675; settings: impacted the activity of PaAP in vivo; cited from earlier work
PaAP_T [2] = target: T1, PaAP_T (Pseudomonas aeruginosa, UniProt Q02PA2); experiment: Enzymatic assay with amino acid-pNA substrates (kcat, KM); type: biochemical; settings: amino acid–pNA substrate
T1 construct: PaAP (WT, residues 27–536); His6 (TEV cleavable) (N, cleaved yes); made in house; host or cells: E. coli SHuffle T7
Experimental: (§1) Aminopeptidase activity was determined spectrophotometrically primarily using amino Leu-pNA. Other commercially available pNA substrates (isoleucine, methionine, alanine, valine, proline, arginine, lysine and phenylalanine) were also assayed. Leu-pNA was incubated with enzyme (100 nM) in assay buffer (50 mM Tris, pH 8.5, 200 mM NaCl) at 25 °C. A pNA release caused an absorbance increase at 405 nm, monitored using a BMG Labtech plate reader. […] Data were plotted in GraphPad Prism (version 9) and the Michalis Menten equation was used for fitting.

in vitro = in vitro ADME, Pseudomonas aeruginosa; settings: cells or culture medium; after 48 h growth; read-out: peptide remaining in solution
Experimental: Supplementary Figure 19. Stability of cyclic-ERWGHDFIK
The stability of cyclic-ERWGHDFIK was tested by incubating in LB media +/- inoculation with PA14 Pseudomonas aeruginosa. Samples were taken at set timepoints over a 48 hour time period, quenched and analysed by LC-MS. % of cyclic-ERWGHDFIK remaining was calculated by comparing integrated peak areas to the 0 time point. n=1 […]
(1 picture or pasted object on this page, not shown here)

[3] = target: T2, PaAP_T (P. aeruginosa aminopeptidase, C-terminal truncated) (Pseudomonas aeruginosa, UniProt Q02PA2); experiment: Inhibition of PaAP_T in the Leu-pNA aminopeptidase assay (KI, IC50); type: biochemical
T2 construct: PaAP (WT, residues 27–536); His6 (TEV cleavable) (N, cleaved yes); made in house; host or cells: E. coli SHuffle T7
Experimental: as §1
(§2) Inhibition assays were carried out with the following peptides: linear-ERWGHDFIK (PaAP C-terminal residues), cyclic-ERWGHDFIK, N-acetylated and C-amidated ERWGHDFIK. IC50 values were determined by varying peptide concentration at a fixed substrate concentration (fixed at KM, (S) = 2 mM, PaAP concentration was 100 nM). […] KI values were determined by fitting the data to equation (1) (Morrison’s equation):1 v=1−Et+I+KI−Et+I+KI^2−4EtIKI/2Et where v is the velocity, Et is the total enzyme concentration, I is the concentration of inhibitor and KI is the equilibrium dissociation constant for the inhibitor. IC50 values increased when measured at increasing S, consistent with competitive inhibition.

PaAP [4] = experiment: PaAP in reaction buffer (50 mM Tris, pH 8.5, 100 mM NaCl); settings: P. aeruginosa, room temperature, up to overnight
[5] = target: T3, PaAP_T (P. aeruginosa aminopeptidase, C-terminal truncated) (Pseudomonas aeruginosa, UniProt Q02PA2); experiment: Inhibition of PaAP_T in the Leu-pNA aminopeptidase assay (KI, IC50); type: biochemical; settings: for IC50 plot data (PaAP_T activity at given peptide concentration): (S) = 2 mM, PaAP 100 nM, listed as ERWGHDFIK-NH3
T3 construct: PaAP (WT, residues 27–536); His6 (TEV cleavable) (N, cleaved yes); made in house; host or cells: E. coli SHuffle T7
T3 sequence (Q02PA2 whole entry, looked up): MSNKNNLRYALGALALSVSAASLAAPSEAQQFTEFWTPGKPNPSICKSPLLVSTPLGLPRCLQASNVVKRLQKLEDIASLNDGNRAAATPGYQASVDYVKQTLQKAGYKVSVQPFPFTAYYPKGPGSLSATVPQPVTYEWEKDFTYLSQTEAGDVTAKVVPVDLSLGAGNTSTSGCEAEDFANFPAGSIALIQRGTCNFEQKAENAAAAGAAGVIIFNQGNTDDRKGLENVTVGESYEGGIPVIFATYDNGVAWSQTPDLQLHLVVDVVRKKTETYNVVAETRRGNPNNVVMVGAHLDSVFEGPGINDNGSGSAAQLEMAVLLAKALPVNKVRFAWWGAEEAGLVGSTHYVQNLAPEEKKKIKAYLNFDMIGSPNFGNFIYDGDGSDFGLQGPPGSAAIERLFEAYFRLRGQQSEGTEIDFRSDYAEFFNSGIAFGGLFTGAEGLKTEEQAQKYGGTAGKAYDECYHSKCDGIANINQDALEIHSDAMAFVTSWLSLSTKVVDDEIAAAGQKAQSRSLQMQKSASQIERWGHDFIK
Experimental: as §1, §2

PaAP [6] = target: T4, PaAP (Pseudomonas aeruginosa, UniProt Q02PA2, A513L/Q514V/S515P); experiment: Peptide digestion assay (overnight and time course, LC-MS/MALDI); type: biochemical; settings: for P0 (parent peptide, LC–MS signal): 500 μM peptide, 1 μM PaAP_T, listed as ERWGHDFIK-NH3
T4 construct: PaAP (WT, residues 27–536); His6 (TEV cleavable) (N, cleaved yes); made in house; host or cells: E. coli SHuffle T7
T4 sequence (Q02PA2 37-516 A513L/Q514V/S515P): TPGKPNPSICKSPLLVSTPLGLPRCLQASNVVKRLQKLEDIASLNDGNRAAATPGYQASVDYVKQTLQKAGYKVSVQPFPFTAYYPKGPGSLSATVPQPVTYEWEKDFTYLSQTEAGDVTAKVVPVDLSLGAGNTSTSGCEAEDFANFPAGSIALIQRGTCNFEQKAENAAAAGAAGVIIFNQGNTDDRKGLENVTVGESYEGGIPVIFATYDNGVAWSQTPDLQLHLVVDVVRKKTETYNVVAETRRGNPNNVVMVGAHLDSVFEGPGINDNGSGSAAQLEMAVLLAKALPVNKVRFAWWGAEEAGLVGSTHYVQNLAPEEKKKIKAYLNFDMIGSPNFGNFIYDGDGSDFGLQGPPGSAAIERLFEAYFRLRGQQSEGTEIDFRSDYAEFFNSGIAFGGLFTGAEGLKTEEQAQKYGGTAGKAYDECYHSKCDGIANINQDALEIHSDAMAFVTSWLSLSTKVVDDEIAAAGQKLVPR
Experimental: A variety of peptides of varying lengths and compositions were incubated with PaAP at room temperature. Assays were performed by incubating (overnight at room temperature) 500 μM of substrate (peptides) with 1 μM enzyme (PaAP) in reaction buffer (50 mM Tris, pH 8.5, 100 mM NaCl). The reactions were quenched by heating to 100 °C for 10 min followed by centrifugation at 17,000g in a benchtop centrifuge to remove precipitate. Supernatant was collected and samples were analyzed by LC–MS. Initial trial assays were carried out in the presence and absence (control) of enzyme to determine if the substrate was degraded (single or triplicate experiments). Time-course assays were performed on selected peptide substrates in triplicate. A 300 μl reaction (including 500 μM of substrate) was initiated by the addition of 1 μM enzyme. The reaction was incubated at room temperature. The reaction was quenched at set timepoints by the removal of 30 μl aliquots, which were immediately heated to 100 °C for 10 min. The samples were analyzed by LC–MS using a Xevo Q-ToF (Waters) as described below, searching for masses of all peptide breakdown products.
Peptide degradation time courses were fitted to exponential equations as follows:
P0 peptide consumption was fitted to a single exponential equation (equation (2)) with the format2 yt=y0−Plateaue^−kt+Plateau
Time courses for the formation and decay of peptide intermediates were fitted to double exponential equations (equation (3)) and single exponential equations, followed by a linear phase (4)3 yt=y0−Plateau1e^−k1t+y0−Plateau2e^−k2t+Plateau 4 yt=y0−Plateaue^−kt+vt+Plateau where y(t) is the product formed at time t, y0 − Plateau is the amplitude of the exponential phase, k is the observed rate constant for the exponential phase, y0 is the value of y at time 0, Plateau is the value of y after exponential phase, C is the offset and v is the slope of the linear phase.
Peptide samples incubated in the presence and absence of PaAP were initially analyzed by MALDI. The peptide sample (0.5 µl at 10 µM) was spotted along with matrix (0.5 µl 10 mg ml^−1 α-cyano-4-hydroxycinnamic acid in ACN/0.1% TFA (50/50, vol/vol)) on a stainless steel MALDI plate and left to dry. The sample plate was loaded into a Sciex 4800 MALDI mass spectrometer. The laser voltage was adjusted to give a good signal to noise strength, and 50 shots were acquired in a random pattern across the spot and spectra combined. The spectra were externally calibrated with Sciex Pepcal mix (range: 500–4,000 m/z).

PaAP_T [7] = experiment: PaAP_T in reaction buffer (50 mM Tris, pH 8.5, 100 mM NaCl), time course; settings: P. aeruginosa, room temperature, up to 1220 minutes
PaAP_T [8] = experiment: reaction buffer (50 mM Tris, pH 8.5, 100 mM NaCl), time-course assay; settings: Pseudomonas aeruginosa (recombinant enzyme), room temperature, up to 1220 min

Compound: O=C(O)CCNC(=O)c1ccc(/N=N/c2ccc(O)c(C(=O)O)c2)cc1 [Balsalazide]
- effect on biofilm (PaAP [1]): anti-biofilm phenotype

Compound: CC(C)C[C@H](N)C(=O)Nc1ccc([N+](=O)[O-])cc1 [Leu-pNA]
- kcat (PaAP_T [2]): 11.5 s⁻¹

Compound: NCCCC[C@H](N)C(=O)Nc1ccc([N+](=O)[O-])cc1 [Lys-pNA]
- kcat (PaAP_T [2]): 4.13 s⁻¹

Compound: CC(C)[C@H](N)C(=O)Nc1ccc([N+](=O)[O-])cc1 [Val-pNA]
- kcat (PaAP_T [2]): 0.115 s⁻¹

Compound: CC[C@H](C)[C@@H]1NC(=O)[C@H](Cc2ccccc2)NC(=O)[C@H](CC(=O)O)NC(=O)[C@H](Cc2c[nH]cn2)NC(=O)CNC(=O)[C@H](Cc2c[nH]c3ccccc23)NC(=O)[C@H](CCCNC(=N)N)NC(=O)[C@@H](N)CCC(=O)NCCCC[C@@H](C(=O)O)NC1=O [cyclic-ERWGHDFIK] (H-ERWGHDFIK-OH; lactam 1-9)
- remaining at 48 h (in vitro): > 60%
- Ki [3]: 22.8 nM

Compound: Ac-ERWGHDFIK
- not cleaved (PaAP [4]): not a substrate

Compound: ERWGHDFIK-NH2: ERWGHDFIK peptide harboring a C-terminal amide
- IC50 relative to unmodified linear ERWGHDFIK ([5]; Leu-pNA assay): increased IC50 value
- inhibition of PaAP_T ([5]; Leu-pNA assay): very poor inhibitors
- IC50 plot data (PaAP_T activity at given peptide concentration) ([5]; log(I) 0): 100.509 and 101.823 and 100.804
- IC50 plot data (PaAP_T activity at given peptide concentration) ([5]; log(I) 0.39794): 100.885 and 102.922 and 101.877
- IC50 plot data (PaAP_T activity at given peptide concentration) ([5]; log(I) 0.69897): 100.054 and 101.233 and 108.07
- IC50 plot data (PaAP_T activity at given peptide concentration) ([5]; log(I) 1): 99.2493 and 105.174 and 106.059
- IC50 plot data (PaAP_T activity at given peptide concentration) ([5]; log(I) 1.39794): 96.4075 and 101.34 and 94.2091
- IC50 plot data (PaAP_T activity at given peptide concentration) ([5]; log(I) 1.69897): 90.5898 and 93.2172 and 95.2547
- IC50 plot data (PaAP_T activity at given peptide concentration) ([5]; log(I) 2): 71.9303 and 76.8365 and 72.5737
- IC50 plot data (PaAP_T activity at given peptide concentration) ([5]; log(I) 2.39794): 36.7024 and 39.9464 and 37.7748
- IC50 plot data (PaAP_T activity at given peptide concentration) ([5]; log(I) -0.30103): 101.126 and 105.737 and 97.1046
- IC50 plot data (PaAP_T activity at given peptide concentration) ([5]; log(I) -0.60206): 99.866 and 101.85 and 100.456
- IC50 plot data (PaAP_T activity at given peptide concentration) ([5]; log(I) -1): 101.475 and 103.619 and 100.617
- IC50 plot data (PaAP_T activity at given peptide concentration) ([5]; log(I) -1.30103): 101.126 and 99.5174 and 100.483
- substrate of / degraded by PaAP (words) (PaAP [6]; incubated with PaAP overnight, LC–MS or MALDI, listed as ERWEGHDFIK-NH3): good substrate
- P0 (parent peptide, LC–MS signal) (PaAP [6]; time 0 minutes): 747781 and 703178 and 683749
- P0 (parent peptide, LC–MS signal) (PaAP [6]; time 5 minutes): 717720 and 659374 and 657747
- P0 (parent peptide, LC–MS signal) (PaAP [6]; time 10 minutes): 666366 and 611681 and 573626
- P0 (parent peptide, LC–MS signal) (PaAP [6]; time 30 minutes): 456167 and 415831 and 416655
- P0 (parent peptide, LC–MS signal) (PaAP [6]; time 60 minutes): 206401 and 213826 and 168991
- P0 (parent peptide, LC–MS signal) (PaAP [6]; time 90 minutes): 48119.3 and 55308.2 and 38290.8
- P0 (parent peptide, LC–MS signal) (PaAP [6]; time 120 minutes): 7764.71 and 8223.82 and 5808.71
- P0 (parent peptide, LC–MS signal) (PaAP [6]; time 180 minutes): 323.386 and 411.426 and 320.297
- relative rate of degradation by PaAP (PaAP [6]; time-course assay, LC–MS): processed at a faster rate than unmodified ERWGHDFIK

Compound: HCATIPAFDG
- fragment found (PaAP_T [7]): products from P-5, major
- fragment found (PaAP_T [8]): products from P-5, major

Compound: cyclic-ERWGHDFIK cyclized by isopeptide bond
- not cleaved (PaAP [4]): not degraded when incubated overnight with PaAP
